Holding throughout (conditions): remark: other sources report otherwise
The target in assay [1] is recombinant soluble homotrimeric HA, A/swine/Ontario/01911-2/99 H4N6 (Influenza A virus A/Swine/Ontario/01911-2/99 (H4N6)). Put plainly: microarray, transfection SN IgG, trimeric HA.
In assay [2] the target is recombinant soluble homotrimeric HA, A/Netherlands/219/03 H7N7 (Influenza A virus A/Netherlands/219/03(H7N7)). In words: microarray, transfection SN IgG, trimeric HA.
Assay [3] has as its target T1, recombinant soluble homotrimeric HA of A/Netherlands/219/03 (H7N7) (Influenza A virus A/Netherlands/219/03(H7N7)). Put plainly: trimeric HA microarray, transfection supernatant set 3.
In assay [4] the target is recombinant soluble homotrimeric HA of A/South Carolina/1/18 (H1N1) (Influenza A virus A/South Carolina/1/18 (H1N1)). The description is as above.
Assay [5] has as its target T2, recombinant soluble homotrimeric HA of A/Egypt/3300-NAMRU3/08 (H5N1) (Influenza A virus A/Egypt/3300-NAMRU3/2008(H5N1)). The description is as above.
For assay [6], the target named is T3, recombinant soluble homotrimeric HA of A/Solomon Islands/3/06 (H1N1) (Influenza A virus A/Solomon Islands/3/2006(H1N1)). The description is as above.
Assay [7] deals with T4, recombinant soluble homotrimeric HA of A/California/4/09 (H1N1) (Influenza A virus A/California/04/2009(H1N1)). The description is as above.
Assay [8] has as its target T5, recombinant soluble homotrimeric HA of A/Japan/305/57 (H2N2) (Influenza A virus A/Japan/305/1957(H2N2)). The assay is described as above.
Assay [9] has as its target T6, recombinant soluble homotrimeric HA of A/Anhui/1/05 (H5N1) (Influenza A virus A/Anhui/1/2005(H5N1)). The description is as above.
For assay [10], the target named is T7, recombinant soluble homotrimeric HA of A/Vietnam/1203/04 (H5N1) (Influenza A virus A/VietNam/1203/2004(H5N1)). Described as above.
Assay [11] concerns the target T8, recombinant soluble homotrimeric HA of A/Indonesia/5/05 (H5N1) (Influenza A virus A/Indonesia/5/2005(H5N1)). The description is as above.
For assay [12], the target named is T9, recombinant soluble homotrimeric HA of A/chicken/Vietnam/NCVD-016/08 (H5N1) (Influenza A virus A/chicken/Vietnam/NCVD-016/2008(H5N1)). The description is as above.
The target of assay [13] is T1, recombinant soluble homotrimeric HA of …. In words: trimeric HA microarray, transfection supernatant set 4.
Assay [14] has the same target. Put plainly: trimeric HA microarray, transfection supernatant set 5.
The target of assay [15] is recombinant soluble homotrimeric HA of A/duck/Yangzhou/02/05 (H8N4) (Influenza A virus A/duck/Yangzhou/02/2005(H8N4)). The assay is described as above.
Assay [16] concerns the target recombinant soluble homotrimeric HA of A/northern shoveler/California/HKWF115/07 (H6) (Influenza A virus A/northern shoveler/California/HKWF115/2007(H6N1)). The description is as above.
Assay [17] has as its target recombinant soluble homotrimeric HA of A/Hong Kong/156/97 (H5N1) (Influenza A virus A/Hong Kong/156/97 (H5N1)). Described as above.
The target in assay [18] is T2, recombinant soluble homotrimeric HA of …. Described as above.
In assay [19] the target is T3, recombinant soluble homotrimeric HA of …. The description is as above.
The target in assay [20] is T4, recombinant soluble homotrimeric HA of …. The description is as above.
Assay [21] deals with recombinant soluble homotrimeric HA of A/Wisconsin/67/05 (H3N2) (Influenza A virus A/Wisconsin/67/2005(H3N2)). The description is as above.
Assay [22] deals with recombinant soluble homotrimeric HA of A/swine/Ontario/01911-2/99 (H4N6) (Influenza A virus A/Swine/Ontario/01911-2/99 (H4N6)). The description is as above.
Assay [23] concerns the target T5, recombinant soluble homotrimeric HA of …. The description is as above.
Assay [24] deals with T6, recombinant soluble homotrimeric HA of …. The description is as above.
Assay [25] addresses T7, recombinant soluble homotrimeric HA of …. The description is as above.
The target of assay [26] is T8, recombinant soluble homotrimeric HA of …. The description is as above.
In assay [27] the target is T9, recombinant soluble homotrimeric HA of …. The assay is described as above.

B1: TCN-504 (3251_K17) (antibody, V domains shown)
VH: QVQLQESGPGLVKPSETLSLTCAVSGVSISNIDFYWGWIRQPPGKGLEWIGNIYYTGITFYNPSLSSRVAISIDTSKNQFSLTLTSVTAADTAMYYCARHYGDSEAINDAFDIWGQGTMLTVSS
VL: EIVMTQSPATLSVSPGERATLSCRASQSVGNSLAWYQQRPGQAPRLLIYGASTRATGIPPRFSGSGSGTEFTLTISSLQTEDFAVYYCQQYINWRPLSFGGGTKVEIK
On to B1, for which the Trimeric HA Binding: RLU in assay [1] stood at 54800 RLU; in [2], 30600 RLU; in assay [3], 19600 RLU; in assay [4], 27600 RLU; in [5] it was 18000 RLU; in assay [6], 32700 RLU. Besides, the Trimeric HA Binding: RLU in assay [7] is 18600 RLU; in assay [8] it was 36000 RLU; in assay [9] it was 30000 RLU; in assay [10], 13300 RLU; in [11], 18600 RLU; in assay [12], 10300 RLU. Further, the Trimeric HA Binding: RLU in assay [13] is 6710 RLU.

B2: TCN-523 (5248_A17) (antibody, V domains shown)
VH: QVQLVQSGAEVKKPGSSVKVSCKASGGSFSNYAFSWVRQAPGQGLEWMGGTIPLLGTTNYAQKFQGRVTISADQFTSTAYMELGSLRSEDTAVYYCTRRKMTTAFDSWGQGTLVTVSS
VL: QPVLTQPPSASASLGASVTLTCTLSSAYSNYKVDWYQQRPGKGPRFVMRVGTGGIVGSKGDGIPDRFSVLGSGLNRYLTIKNIQEEDESDYHCGADHGSGSNFVSPYVFGGGTKLTVL
For B2, the Trimeric HA Binding: RLU was 3140 RLU in assay [3]; 23700 RLU in assay [4]; 29100 RLU in assay [5]; 11000 RLU in assay [6]; 19400 RLU in assay [7]; 4550 RLU in [8]. Further, the Trimeric HA Binding: RLU in assay [9] was 546 RLU; in [10], 22100 RLU; in assay [11], 22000 RLU; in [12], 18900 RLU; in assay [13], 443 RLU.

B3: TCN-530 (5248_H10a) (antibody, V domains shown)
VH: QVQLVQSGAEVRKPGSSVKVSCKASGGPFMSYAIGWVRQAPGQGLEWMGGINPVFGRPHYAQKFQGRVTIATDDSTKTSYMELSSLTSEDTGMYYCASRYSRSSPGTFESWGQGTLVTVSS
VL: EIVMTQFPATLSVSPGERVTLSCRASQSVSNNLAWYQQKPGQPPRLLIYDASTRATGVPAKFSGTGSGTEFTLSISSLQSEDFAVYYCQQYHNWPPSYSFGLGTKLEIK
On to B3, for which the Trimeric HA Binding: RLU was 118 RLU in assay [3]; 17200 RLU in assay [4]; 25500 RLU in assay [5]; 13800 RLU in [6]; 21200 RLU in [7]; 5170 RLU in assay [8]. Moreover, the Trimeric HA Binding: RLU came to 97 RLU in assay [9], 25200 RLU in assay [10], 25500 RLU in [11] and 18000 RLU in assay [12].

B4: TCN-543 (5081_G23) (antibody, V domains shown)
VH: QVHLVQSGAEVRKPGDSVKVSCKTSGYTFSTYPVAWVRQVPGQGLEWMGWISTYNGNTNFAQNFQGRVTLTTDTTTNTAYMEVRSLKFDDTAVYYCARVEGSYRDFWNNQNRFDPWGQGTLVTVSS
VL: SYVLTQPPSVSVAPGQTARISCGGSNIGGKSVHWYQQKPGQAPVLVVYDDSGRPSGIPERFSGSNSGDTATLTISRVEAGDEADYFCQVWDNFGGVFGTGTKVTVL
For the molecule B4, the Trimeric HA Binding: RLU stood at 12900 RLU in assay [14]; 13100 RLU in assay [15]; 2510 RLU in assay [16]; 1430 RLU in assay [17]; 17600 RLU in [18]; 43500 RLU in assay [19]. The Trimeric HA Binding: RLU is 2340 RLU in assay [20]; 37000 RLU in assay [21]; 2870 RLU in assay [22]; 2780 RLU in assay [23]; 2630 RLU in [24]; 33100 RLU in assay [25]. Also, the Trimeric HA Binding: RLU in [26] stood at 1830 RLU; in [27], 5880 RLU.

Values taken from US20150086555A1.
